Measurements published in patent US20050124036.

These substances were tested on plasminogen according to the present invention (20 mg/ml, Example 8).
Elastase was tested, and the “plasmin activity after activation” value was 0.63 U/mg.
In the case of Endoproteinase Asp-N, the “plasmin activity after activation” value is reported as 4.3 U/mg.
Endoproteinase Glu-C was tested, and the “plasmin activity after activation” value was 0.6 U/mg.
Ficin was tested, and the “plasmin activity after activation” value was 0.01 U/mg.
Protease VIII was tested, and the “plasmin activity after activation” value was 9 U/mg.
With Protease XIII the “plasmin activity after activation” value was 0.01 U/mg.
With Protease XVIII the “plasmin activity after activation” value was 0.7 U/mg.
With Protease from S. griseus the “plasmin activity after activation” value was 613.3 U/mg.
For Proteinase A, the “plasmin activity after activation” value was 0.02 U/mg.
Thrombin was tested, and the “plasmin activity after activation” value was 83.0 U/mg.
Trypsin was tested, and the “plasmin activity after activation” value was 11 kU/mg.
